Results from the supplement of paper PMC7877785.
± gives the uncertainty stated by the source.

Test: self-splicing fitness, log relative to wild type (ln ratio); higher = more splicing; Tetrahymena group I intron in knt gene, E. coli kanamycin selection, DiMSum; sequences stand for … in CUCUCU…GGAGGGAAAAGUUAUCAGGCAUGCACCUGGUAGCUAGUCUUUAAACCAAUAGAUUGCAUCGGUUUAAAAGGCAAGACCGUCAAAUUGCGGGAAAGGGGUCAACAGCCGUUCAGUACCAAGUCUCAGGGGAAACUUUGAGAUGGCCUUGCAAAGGGUAUGGUAAUAAGCUGACGGACAUGGUCCUAACCACGCAGCCAAGUCCUAAGUCAACAGAUCUUCUGUUGAUAUGGAUGCAGUUCACAGACUAAAUGUCGGUCGGGGAAGAUGUAUUCUUCUCAUAAGAUAUAGUCGGACCUCUCCUUAAUGGGAGCUAGCGGAUGAAGUGAUGCAACACUGGAGCCGCUGGGAACUAAUUUGUAUGCGAAAGUAUAUUGAUUAGUUUUGGAGUACUCGUGGUCG
Outline: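 The eight P1ex-region nucleotides of an intron in the knt kanamycin-resistance gene on pET-22b(+) were all randomised and the library put into E. coli BL21(DE3). Six replicate transformations were grown overnight at 37°C or 30°C on LB agar with or without 25 μg/mL kanamycin, together with 100 μg/mL carbenicillin, 50 μM IPTG and 0.2% rhamnose. Colonies were pooled and amplicon-sequenced on an Illumina HiSeq 2500. Fitness from DiMSum is the error-weighted combination of wild-type-normalised replicate fold changes, kanamycin over none.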

Sequence	self-splicing fitness (ln) (30 °C)	self-splicing fitness (ln) (37 °C)
CCUGAGCAAUAUUACGGCUC	-3.81 ± 0.37	-2.97 ± 0.41
CCUGAGCAAUAUUACGGUAG	-3.11 ± 0.2	-2.26 ± 0.2
CCUGAGCAAUAUUACGGUGG	-3.67 ± 0.37	-1.4 ± 0.2
CCUGAGCAAUAUUACGUGGG	-3.25 ± 0.15	-2.85 ± 0.2
CCUGAGCAAUAUUACGUUUC	-3.69 ± 0.25	-2.81 ± 0.28
CCUUAGCAAUAUUACGACCC	-2.95 ± 0.44	–
CCUUAGCAAUAUUACGAGUU	-3.96 ± 0.27	-2.56 ± 0.21
CCUUAGCAAUAUUACGAUAC	-1.67 ± 0.44	–
CCUUAGCAAUAUUACGCACA	-1.93 ± 0.28	-1.06 ± 0.21
CCUUAGCAAUAUUACGCACU	-2.46 ± 0.41	-1.29 ± 0.22
CCUUAGCAAUAUUACGCUAC	-2.32 ± 0.27	-2.26 ± 0.27
CCUUAGCAAUAUUACGCUUC	-3.71 ± 0.31	-1.83 ± 0.24
CCUUAGCAAUAUUACGGAAA	-3.07 ± 0.24	–
CCUUAGCAAUAUUACGGAUC	-3.45 ± 0.47	-3.6 ± 0.34
CCUUAGCAAUAUUACGGCGA	-4.24 ± 0.39	-1.96 ± 0.2
CCUUAGCAAUAUUACGGGAC	-3.96 ± 0.46	–
CCUUAGCAAUAUUACGUACA	-3.88 ± 0.42	-2.22 ± 0.3
CCUUAGCAAUAUUACGUACU	-2.32 ± 0.23	-1.99 ± 0.21
CCUUAGCAAUAUUACGUAUU	-4.45 ± 0.29	-2.82 ± 0.22
CCUUAGCAAUAUUACGUCGU	-3.7 ± 0.25	-2.13 ± 0.22
CCUUAGCAAUAUUACGUGGU	-4.41 ± 0.36	-1.91 ± 0.23
CGAAAGCAAUAUUACGAAAG	-0.96 ± 0.073	-0.475 ± 0.11
CGAAAGCAAUAUUACGAAGU	-3.07 ± 0.15	-1.84 ± 0.19
CGAAAGCAAUAUUACGAGAA	-2.51 ± 0.49	–
CGAAAGCAAUAUUACGCAAA	-2.59 ± 0.26	-2.35 ± 0.32
CGAAAGCAAUAUUACGCACA	-0.831 ± 0.11	-0.358 ± 0.16

Sequence	self-splicing fitness (ln) (30 °C)	self-splicing fitness (ln) (37 °C)
CGAAAGCAAUAUUACGCCGC	–	-2.13 ± 0.36
CGAAAGCAAUAUUACGCGUC	–	-0.242 ± 0.19
CGAAAGCAAUAUUACGCGUU	-4 ± 0.18	-2.85 ± 0.2
CGAAAGCAAUAUUACGCUCG	-3.71 ± 0.3	-2.26 ± 0.22
CGAAAGCAAUAUUACGCUCU	-2.56 ± 0.14	-1.56 ± 0.15
CGAAAGCAAUAUUACGCUUC	-2.95 ± 0.38	-2.01 ± 0.39
CGAAAGCAAUAUUACGGACU	-0.69 ± 0.053	0.357 ± 0.079
CGAAAGCAAUAUUACGGAGG	-0.982 ± 0.097	-1.45 ± 0.14
CGAAAGCAAUAUUACGGCAG	-0.162 ± 0.081	0.194 ± 0.1
CGAAAGCAAUAUUACGGCGG	-0.187 ± 0.067	0.456 ± 0.093
CGAAAGCAAUAUUACGGGUC	-4 ± 0.3	-3.76 ± 0.34
CGAAAGCAAUAUUACGUACA	-1.25 ± 0.14	-1.23 ± 0.15
CGAAAGCAAUAUUACGUACG	-1.5 ± 0.076	-1.27 ± 0.11
CGAAAGCAAUAUUACGUAGG	-0.721 ± 0.067	-0.28 ± 0.096
CGAAAGCAAUAUUACGUAUA	-3.52 ± 0.17	-2.99 ± 0.21
CGAAAGCAAUAUUACGUUAG	-0.97 ± 0.068	-0.895 ± 0.082
CGAAAGCAAUAUUACGUUCC	-2.1 ± 0.21	-0.586 ± 0.22
CGAAAGCAAUAUUACGUUCG	-3.44 ± 0.14	-2.62 ± 0.15
CGAAAGCAAUAUUACGUUCU	-0.581 ± 0.075	0.092 ± 0.1
CGACAGCAAUAUUACGACAA	-2.08 ± 0.13	-1.27 ± 0.13
CGACAGCAAUAUUACGACGG	0.243 ± 0.074	0.0681 ± 0.086
CGACAGCAAUAUUACGAGUG	-1.06 ± 0.046	-0.592 ± 0.063
CGACAGCAAUAUUACGAUUG	-0.746 ± 0.07	-0.877 ± 0.091
CGACAGCAAUAUUACGCACA	-0.429 ± 0.17	0.097 ± 0.17
CGACAGCAAUAUUACGCAGC	–	-1.96 ± 0.29
CGACAGCAAUAUUACGCAGG	-2.05 ± 0.081	-0.906 ± 0.088

Sequence	self-splicing fitness (ln) (30 °C)	self-splicing fitness (ln) (37 °C)
CGACAGCAAUAUUACGCAUG	-1.37 ± 0.075	-0.351 ± 0.074
CGACAGCAAUAUUACGCCAC	–	0.365 ± 0.49
CGACAGCAAUAUUACGCGAA	-2.75 ± 0.17	-1.42 ± 0.14
CGACAGCAAUAUUACGCGUC	-1.94 ± 0.14	-2.76 ± 0.27
CGACAGCAAUAUUACGCGUG	-1.55 ± 0.067	-1.14 ± 0.095
CGACAGCAAUAUUACGCUCA	0.00701 ± 0.094	-0.503 ± 0.1
CGACAGCAAUAUUACGGAGU	-3.91 ± 0.2	-2.53 ± 0.14
CGACAGCAAUAUUACGGCUC	-2.5 ± 0.11	-1.89 ± 0.14
CGACAGCAAUAUUACGGGCA	-1.24 ± 0.14	0.117 ± 0.13
CGACAGCAAUAUUACGGGGC	-3.72 ± 0.29	-2.87 ± 0.29
CGACAGCAAUAUUACGGGGG	-2.92 ± 0.094	-2.51 ± 0.11
CGACAGCAAUAUUACGGUAU	-3.62 ± 0.2	-2.45 ± 0.23
CGACAGCAAUAUUACGGUGA	-2.34 ± 0.14	-1.55 ± 0.14
CGACAGCAAUAUUACGGUUG	-3.3 ± 0.13	-2.84 ± 0.18
CGACAGCAAUAUUACGUACC	-0.817 ± 0.12	-0.217 ± 0.19
CGACAGCAAUAUUACGUAUC	–	-1.59 ± 0.19
CGACAGCAAUAUUACGUCCA	-0.437 ± 0.066	-0.321 ± 0.081
CGACAGCAAUAUUACGUGAA	-1.93 ± 0.11	-2.02 ± 0.15
CGACAGCAAUAUUACGUGAU	-3.44 ± 0.21	-1.92 ± 0.17
CGAGAGCAAUAUUACGAAGA	-3.49 ± 0.36	–
CGAGAGCAAUAUUACGACCU	-0.7 ± 0.21	-0.635 ± 0.41
CGAGAGCAAUAUUACGCAAA	-2.67 ± 0.27	–
CGAGAGCAAUAUUACGCAAU	-2.58 ± 0.36	–
CGAGAGCAAUAUUACGCAGA	-3.36 ± 0.33	-1.94 ± 0.26
CGAGAGCAAUAUUACGCCUC	-4.16 ± 0.39	-1.27 ± 0.18
CGAGAGCAAUAUUACGCGAG	-2.82 ± 0.19	-1.88 ± 0.22

Sequence	self-splicing fitness (ln) (30 °C)	self-splicing fitness (ln) (37 °C)
CGAGAGCAAUAUUACGCGGG	-3.05 ± 0.32	-2.16 ± 0.27
CGAGAGCAAUAUUACGCUCG	–	-2.39 ± 0.38
CGAGAGCAAUAUUACGGAGA	-2.61 ± 0.26	–
CGAGAGCAAUAUUACGGAGC	-2.84 ± 0.35	–
CGAGAGCAAUAUUACGGAUA	-2.25 ± 0.37	-1.82 ± 0.41
CGAGAGCAAUAUUACGGCAA	–	-2.79 ± 0.48
CGAGAGCAAUAUUACGGCCG	-3.76 ± 0.43	-1.02 ± 0.3
CGAGAGCAAUAUUACGGCUG	-1.18 ± 0.13	-1.14 ± 0.17
CGAGAGCAAUAUUACGGGAG	-2.83 ± 0.16	-0.597 ± 0.16
CGAGAGCAAUAUUACGGGGG	-3.83 ± 0.43	-3.14 ± 0.47
CGAGAGCAAUAUUACGGGGU	-2.86 ± 0.37	-2.27 ± 0.37
CGAGAGCAAUAUUACGUAAG	-2.59 ± 0.13	-1.26 ± 0.15
CGAGAGCAAUAUUACGUAUA	-4.06 ± 0.36	–
CGAGAGCAAUAUUACGUAUU	-2.53 ± 0.28	-1.4 ± 0.28
CGAGAGCAAUAUUACGUCUC	-3.03 ± 0.22	-3.17 ± 0.35
CGAGAGCAAUAUUACGUGGU	–	-3.2 ± 0.37
CGAGAGCAAUAUUACGUUAU	-3.57 ± 0.28	-2.8 ± 0.28
CGAGAGCAAUAUUACGUUGG	-3.78 ± 0.3	-2.48 ± 0.22
CGAUAGCAAUAUUACGACGA	-1.5 ± 0.17	-0.547 ± 0.15
CGAUAGCAAUAUUACGACGG	0.185 ± 0.098	0.424 ± 0.14
CGAUAGCAAUAUUACGACGU	-0.903 ± 0.065	0.0313 ± 0.07
CGAUAGCAAUAUUACGAGGU	-2.8 ± 0.22	-3.01 ± 0.34
CGAUAGCAAUAUUACGAUGA	-1.8 ± 0.17	-0.503 ± 0.2
